# Laboratory results: paper PMC2668204 (Cellular signalling, 2009)
# Target: venus-labeled Gβγ dimers (venus155–239-Gβ1 with venus1–155-Gγ2) (human, UniProt P62873 1-340; P59768 1-71)
# Assay: FRET or BRET
protein,measurement,value
"masGRK3ct-Rluc8 (domain or fragment, myristoylation directed by the N-terminal mas peptide) MGSSKSKTSNSGIKLLDCDQELYKNFPLVISERWQQEVAETVYEAVNADTDKIEARKRAKNKQLGHEEDYALGRDCIVHGYMLKLGNPFLTQWQRRYFYLFPNRLEWRGEGESRQSLLTMEQIVSVEETQIKDKKCILLRIKGGKQFVLQCESDPEFVQWKKELTETFMEAQRLLRRAPKFLNKSRSAVVELSKPPLCHRNSNGL",adenosine-induced BRET increase (highest relative expression of C-TM-Gα i1),0.025 ± 0.003
same,adenosine-induced BRET increase (lowest relative expression of C-TM-Gα i1),0.05 ± 0.007
